The source of these data is PMC3812903 (Biochemistry, 2013).

One test concerns the target NarJ. Particulars: cited from earlier work.
For test [1], the target named is DmsD (Escherichia coli) (UniProt P69853). Particulars: cited from earlier work.
For test [2] the target is unchanged. To be noted: cited from earlier work. This is another data set of the same source.
Test [3] deals with DmsD (His6T7::DmsD construct) (E. coli) (UniProt P69853). Kind of test: ITC. On the technique in general: Isothermal titration calorimetry measures the heat released or taken up as one component is titrated into another.
In test [4] the target is DmsAL21-41 (DmsA twin-arginine leader peptide, residues 21-41) (UniProt P18775). Kind of test: ITC. To be noted: pH 8.0; 30 °C (303.15 K); 100 mM NaCl; 25 mM Tris-HCl (pH 8.0).
For test [5], the target named is DmsAL17-41 (DmsA twin-arginine leader peptide, residues 17-41) (UniProt P18775). Kind of test: ITC. Particulars: pH 8.0; 30 °C (303.15 K); 100 mM NaCl; 25 mM Tris-HCl (pH 8.0).
For test [6], the target named is DmsAL15-41 (DmsA twin-arginine leader peptide, residues 15-41) (UniProt P18775). In words: ITC. Particulars: pH 8.0; 30 °C (303.15 K); 100 mM NaCl; 25 mM Tris-HCl (pH 8.0).
Test [7] addresses DmsAL15-41 KK (DmsA leader peptide residues 15-41, twin arginines changed to lysines) R16K;R17K (UniProt P18775). In words: ITC. To be noted: pH 8.0; 30 °C (303.15 K); 100 mM NaCl; 25 mM Tris-HCl (pH 8.0).
A further test addresses NarJ (Escherichia coli) (UniProt P0AF26). Particulars: cited from earlier work.
Chain of UniProt P0AF26 (P0AF26 whole entry): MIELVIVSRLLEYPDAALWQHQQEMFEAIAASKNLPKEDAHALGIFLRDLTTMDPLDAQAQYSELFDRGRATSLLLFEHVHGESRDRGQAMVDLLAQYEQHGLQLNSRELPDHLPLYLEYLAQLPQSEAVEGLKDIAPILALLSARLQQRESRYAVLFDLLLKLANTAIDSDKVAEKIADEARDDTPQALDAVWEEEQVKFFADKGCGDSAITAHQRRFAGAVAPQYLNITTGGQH
The target of a further test is TorD (Escherichia coli) (UniProt P36662). Particulars: cited from earlier work.
Chain of UniProt P36662 (P36662 whole entry): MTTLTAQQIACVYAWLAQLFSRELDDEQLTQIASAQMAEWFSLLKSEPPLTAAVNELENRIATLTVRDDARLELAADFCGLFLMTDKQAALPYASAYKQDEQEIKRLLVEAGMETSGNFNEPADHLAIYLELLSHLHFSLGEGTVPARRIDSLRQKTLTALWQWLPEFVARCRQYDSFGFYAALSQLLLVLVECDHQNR

Like-named read-outs stand apart in the source and are kept apart here.

One may read the Kd as the equilibrium constant for the complex coming apart. As to “15 N-terminal residues of NarG: 15 amino-terminal residues of NarG, contain a remnant RR motif (MSKFLDRFRYFKQKG; UniProt P09152 1-15, looked up, fragment)”, the dissociation constant Kd on NarJ was around 100 nM.
“DmsA leader peptide 1-43 (from UniProt P18775)”: the Kd with DmsD (Escherichia coli) [1] was 200 nM; with DmsD (Escherichia coli) [2], 60 nM.
The term stoichiometry N denotes the number of molecules, sites or subunits per partner or assembly. In [3], “DmsAL_(15–41 KK) (from UniProt P18775 15-41) (peptide)” gave a Kd of 2900 nM and a stoichiometry N of 1.09.
On to “DmsAL_(15–41) (from UniProt P18775 15-41) (peptide)”, for which, in test [3], the Ka turned out to be 600000 M⁻¹, the Kd is 1700 nM, the dH is -11.7 kcal/mol and the stoichiometry N was 1.04.
“DmsAL_(17–41) (from UniProt P18775 17-41) (peptide)”: in [3], the equilibrium dissociation constant (Kd) is 2100 nM, the dH was -9.5 kcal/mol and the stoichiometry N was determined as 1.04.
In test [3], “DmsAL_(21–41) (from UniProt P18775 21-41) (peptide)” yielded a Ka of 260000 M⁻¹, a Kd of 3900 nM, a dH of -4.3 kcal/mol and a stoichiometry N of 1.14.
With “DmsD (Tat proofreading chaperone / redox enzyme maturation protein)”, the ΔH (apparent, Tris) was -4.3 kcal/mol in [4], -9.5 kcal/mol in test [5], -11.7 kcal/mol in test [6] and -10 kcal/mol in test [7].
As to “NarG N-terminal peptide 1-15 (from UniProt P09152)”, the dissociation constant Kd with NarJ (Escherichia coli) was 100 nM.
For “TorA leader peptide (from UniProt P33225)”, in the test with TorD (Escherichia coli), the Kd was 1800 nM.
